± gives the uncertainty stated by the source.

The nature of the data set: amyloid nucleation score (Sup35N fusion, yeast selection) (log enrichment); library NNK3; higher = more nucleation; inactive = no reads after selection. In outline:
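Three technical output replicates were used for random libraries. Psi-negative yeast expressing peptides of 20 random codons fused to Sup35N were induced with 100 μM copper sulfate for 24 hours and grown 7 days at 30°C on medium lacking adenine and uracil, and input and output plasmid inserts were Illumina-sequenced, excluding sequences with under 100 input reads. The nucleation score is the DiMSum log enrichment of output over input reads, centred on the mode score of non-aggregating sequences.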
With STLNGGSWVMIYAEDLTS, the amyloid nucleation score entry was “inactive”.

For the substance STMHELYV, the amyloid nucleation score entry is “inactive”.

With STNPPNRL, the amyloid nucleation score entry is “inactive”.

For the substance STRFMVIFDGISSVIGAIYG, the amyloid nucleation score result is “inactive”.

As for STVKVSLYQNQYPNGFNS, the amyloid nucleation score is 1.66 ± 0.089.

STVTDTYRLDTWTTWETDRG registered an amyloid nucleation score of 1.98 ± 0.095.

Consider STYLGDVSLSFVRVWSVNGS, for which the amyloid nucleation score was determined as 1.29 ± 0.078.

As for SVARNSHYATLHKELQHVMY, the amyloid nucleation score result was “inactive”.

In the case of SVDFVIPGSVKSVRFVVELV, the amyloid nucleation score result is “inactive”.

Regarding SVDVYRSCEVGKCGGSYSTF, the amyloid nucleation score result is “inactive”.

In the case of SVGFVHFVNTGDQKYERRVD, the amyloid nucleation score entry is “inactive”.

On to SVIVKAKASTVGDMQAKCRI, for which the amyloid nucleation score was 1.1 ± 0.15.

Take SVKLKLGLCFPLYVSGFGLL: the amyloid nucleation score result was “inactive”.

SVLHMWNLRVVLHECYVYHI: the amyloid nucleation score result is “inactive”.

For the substance SVLIFTMKDFLGEIFINVPT, the amyloid nucleation score was 1.89 ± 0.092.

Take SVLRYE: the amyloid nucleation score result is “inactive”.

In the case of SVLSLLLCYRCSRL, the amyloid nucleation score is -0.081 ± 0.98.

SVLSVV: the amyloid nucleation score result is “inactive”.

For SVLVIFVLLSIGSAVKLNYG, the amyloid nucleation score result is “inactive”.

For SVNFELYDMITRC, the amyloid nucleation score entry is “inactive”.

With SVNIMRSLIWH, the amyloid nucleation score entry was “inactive”.

For SVRLTIEMVTAVFRWGESMR, the amyloid nucleation score was 0.233 ± 0.32.

Take SVSPCSTHFLMSFERYVRGT: the amyloid nucleation score entry is “inactive”.

As to SVSSLRYY, the amyloid nucleation score entry was “inactive”.

SVSSRHSAW: the amyloid nucleation score result is “inactive”.

Take SVSSYAICVEACNYFRSRLV: the amyloid nucleation score entry is “inactive”.

SVVEPRRTGTWNSTGVRSQH: the amyloid nucleation score entry is “inactive”.

In the case of SVVFLLRIAWYWGLWIVLLL, the amyloid nucleation score result was “inactive”.

Consider SVWESHVWHAHTQI, for which the amyloid nucleation score entry was “inactive”.

The substance SVYFFQGTL had an amyloid nucleation score of 1.29 ± 0.084.

For the substance SWGFHEWSVACQICRYVDRP, the amyloid nucleation score result is “inactive”.

Turning to SWGNHYLRGLICYFLLFTDT, the amyloid nucleation score result was “inactive”.

SWIVRLWCVMWNNLFVFIRN: the amyloid nucleation score result is “inactive”.

Take SWLIR: the amyloid nucleation score result was “inactive”.

For the substance SWMVQLVNTGVRWLVLANDA, the amyloid nucleation score entry is “inactive”.

For the substance SWPSASSFDSR, the amyloid nucleation score entry was “inactive”.

For the substance SWRLYMMA, the amyloid nucleation score result was “inactive”.

Substance SWSGCGLVPSSVSWGYGTCV registered an amyloid nucleation score of -0.47 ± 1.9.

For SWSTSNVVLNL, the amyloid nucleation score stood at 1.99 ± 0.072.

Turning to SWTSVSFRRMLMDSSR, the amyloid nucleation score entry is “inactive”.

On to SWYDHWSLIQDGLKRVNGG, for which the amyloid nucleation score result was “inactive”.

Turning to SYANIWVIHKLDGFMESSLL, the amyloid nucleation score entry is “inactive”.

With SYGHLQILKVMAIPSYAFPK, the amyloid nucleation score result was “inactive”.

Take SYGVGWVYTEFGNLLRSFGL: the amyloid nucleation score result is “inactive”.

For SYLQQLDLSRDGTVLLKSGI, the amyloid nucleation score result was “inactive”.

Turning to SYLYLCRIKVDLPFWSDRLV, the amyloid nucleation score entry was “inactive”.

Consider SYMISPAVGKDRDM, for which the amyloid nucleation score entry was “inactive”.

Consider SYMLNSCSWRTK, for which the amyloid nucleation score entry was “inactive”.

Turning to SYPGRLYSSGYDCVYSNRSR, the amyloid nucleation score result was “inactive”.

As for SYQLCACK, the amyloid nucleation score entry was “inactive”.

With SYRLSYLYPSTHHYLLNCLL, the amyloid nucleation score entry was “inactive”.

With SYSSDWVLLGGMFFAKY, the amyloid nucleation score came to 0.164 ± 0.56.

In the case of SYSVSCTDGWSIVFMFSHIA, the amyloid nucleation score entry is “inactive”.

Turning to SYVCWDIFIGQRSNAALSTI, the amyloid nucleation score entry is “inactive”.

Turning to SYVWYRNGM, the amyloid nucleation score result is “inactive”.

As for SYWLQSPYDTESMSGFLLQI, the amyloid nucleation score entry is “inactive”.

For SYWYACGKYADNSMER, the amyloid nucleation score entry was “inactive”.

As for SYYFMGHLVFSVQTCIYTQG, the amyloid nucleation score was found to be 0.004 ± 0.26.

As for SYYLRLYEVTWFSRFGFDRS, the amyloid nucleation score entry is “inactive”.

As for SYYSSDKMIVSVGLLKRDAK, the amyloid nucleation score result was “inactive”.

As to SYYVICGTLMIIVVYFSSYN, the amyloid nucleation score worked out at 1.02 ± 0.093.

The substance SYYVNVRYWSITCPIWGLSD displayed an amyloid nucleation score of 2.29 ± 0.08.

Turning to TAFTGIRTWHCHCKRSYSLG, the amyloid nucleation score result is “inactive”.

In turn, TALWYSYFSTKNDMSLQFAP returned an amyloid nucleation score of -0.673 ± 1.1.

For TAQTNPGVYYS, the amyloid nucleation score entry was “inactive”.

For TATYKSYCTL, the amyloid nucleation score result is “inactive”.

TCCSVLLIKVSSNEGD displayed an amyloid nucleation score of 2.6 ± 0.078.

In the case of TCHDGHGAGRTVSGVFGGVA, the amyloid nucleation score result is “inactive”.

With TCIGNNPMPYFTFCITHNAM, the amyloid nucleation score was found to be 1.03 ± 0.24.

For TCKVVCRFFHIRACMLGVIL, the amyloid nucleation score result was “inactive”.

Turning to TCMHC, the amyloid nucleation score entry was “inactive”.

Take TCRHPIPASLARSAAAVLVW: the amyloid nucleation score entry was “inactive”.

As for TCRMVRGSMMDSAVV, the amyloid nucleation score entry is “inactive”.

Regarding TCSFECGACTRQVDAVCQLG, the amyloid nucleation score result is “inactive”.

Turning to TCTCGVFSD, the amyloid nucleation score result is “inactive”.

For TCTGCTSVTL, the amyloid nucleation score entry was “inactive”.

TCTYCRFRLSSLVSW returned an amyloid nucleation score of 0.366 ± 0.42.

TCYFVYTRFFWGDRESKSTF: the amyloid nucleation score entry was “inactive”.

TCYITA: the amyloid nucleation score entry is “inactive”.

In the case of TDIFKSFIRNMNLVWFRVMT, the amyloid nucleation score result was “inactive”.

As to TDKFWLIGDSTTSWIEVVFN, the amyloid nucleation score entry is “inactive”.

For the substance TDMMMFICE, the amyloid nucleation score result was “inactive”.

On to TDPFLTCK, for which the amyloid nucleation score entry was “inactive”.

Turning to TDSCKGVWIMVGFALFLMWS, the amyloid nucleation score result was “inactive”.

For TDTLCDWYLPNRRWIKDNEW, the amyloid nucleation score entry is “inactive”.

For the substance TDYQNWFNVEINKF, the amyloid nucleation score is 1.48 ± 0.14.

With TELVLRAVSSLGVLVIFTTS, the amyloid nucleation score entry is “inactive”.

With TENCEFFTNPPARPYG, the amyloid nucleation score entry was “inactive”.

Substance TERVCVCVTFVLW registered an amyloid nucleation score of 1.23 ± 0.16.

Take TFCFPWL: the amyloid nucleation score result is “inactive”.

The substance TFCMLCYQNSIFTVYNSEYQ displayed an amyloid nucleation score of 3.36 ± 0.064.

As for TFDSYPFVKGGISWPNMKYL, the amyloid nucleation score result is “inactive”.

As to TFEEFESTARLGFHERGDFY, the amyloid nucleation score entry is “inactive”.

With TFFFTVLG, the amyloid nucleation score came to 1.55 ± 0.12.

As for TFFFVVGHSNDEVYSCVKTV, the amyloid nucleation score was 1.12 ± 0.11.

With TFFWTRCDIVGREWVSNTVN, the amyloid nucleation score result was “inactive”.

TFHSM: the amyloid nucleation score entry was “inactive”.

In turn, TFLELSIMYGRVTCNSLY registered an amyloid nucleation score of -0.259 ± 0.8.

Regarding TFLNFSVIGVTSLGTDRAYD, the amyloid nucleation score entry is “inactive”.

On to TFLVALSYFVSLGYGSSQSM, for which the amyloid nucleation score result is “inactive”.

Take TFRLILILRTSI: the amyloid nucleation score is 0.898 ± 0.16.

Turning to TFSVYADETSKRTVFTVMIW, the amyloid nucleation score result was “inactive”.

For TFVHAYTGWMEFVV, the amyloid nucleation score result was “inactive”.

In turn, TFWVFIAQKRCSGGKYGCMC gave an amyloid nucleation score of -0.097 ± 0.69.

In the case of TFYVLRPTYSITRNGAPRPL, the amyloid nucleation score entry was “inactive”.

On to TGLNGLRVLYSMRRPGKV, for which the amyloid nucleation score entry was “inactive”.

Take TGRVLGYGLL: the amyloid nucleation score entry is “inactive”.

Regarding TGSFIIRISSSRTMLW, the amyloid nucleation score entry is “inactive”.

With TGSNRSYIFFCWSRFNVMFG, the amyloid nucleation score was -0.002 ± 0.9.

For the substance TGVFDFRRVVLLVSHSEV, the amyloid nucleation score entry was “inactive”.

Consider TGVSIKFTSSKYYSVTSATT, for which the amyloid nucleation score entry is “inactive”.

Take THRSRKSDPNRQSFIKCGHS: the amyloid nucleation score entry is “inactive”.

For the substance THRVTTRCLLRLLRWIRM, the amyloid nucleation score result is “inactive”.

With THTTAS, the amyloid nucleation score result is “inactive”.

For TIFVVCIRIFVWFLCYGSDP, the amyloid nucleation score was 0.207 ± 0.23.

With TIHSRMGIVLYFFAIDCVR, the amyloid nucleation score entry was “inactive”.

Regarding TIMAFIIAIRSLDRCQSSGM, the amyloid nucleation score result is “inactive”.

For the substance TISPFLINMFWLSCTLMSQE, the amyloid nucleation score was 0.558 ± 0.16.

As to TISSSLKRMWDIVFSLCNNI, the amyloid nucleation score result was “inactive”.

As for TIVYSLT, the amyloid nucleation score result was “inactive”.

Consider TIYVLCGRTIRWFVLNPLQE, for which the amyloid nucleation score entry is “inactive”.

On to TKCLRVVKRTTYGSQEFLRK, for which the amyloid nucleation score result was “inactive”.

Consider TKCTYKLGYTLYTGVKDVVR, for which the amyloid nucleation score entry is “inactive”.

On to TKDRFFLKHTGRIMLGLRR, for which the amyloid nucleation score entry is “inactive”.

TKGNCSAHPRRL displayed an amyloid nucleation score of -0.581 ± 1.4.

Take TKHPLYM: the amyloid nucleation score entry was “inactive”.

Turning to TKSYFRINMFAVLDRCGLCR, the amyloid nucleation score entry is “inactive”.

Turning to TKSYPRTMFEPALALDMP, the amyloid nucleation score worked out at 0.871 ± 0.26.

As for TKWVVASLVCKSAGKTGRVI, the amyloid nucleation score result is “inactive”.

Take TLCSSGGMFHRSMDSITMS: the amyloid nucleation score result is “inactive”.

For the substance TLFWMSYWMRPSNIHCCVRM, the amyloid nucleation score entry is “inactive”.

Regarding TLHCSVYMCTTYGNTHLYVH, the amyloid nucleation score was found to be 2.2 ± 0.063.

These data come from the supplement of paper PMC12042874.
